Reference: US10196447B2, “Anti-vascular endothelial growth factor receptor 2 (VEGFR2) antibody and methods of use thereof for detecting VEGFR2 and for inhibiting tumor growth, tumor angiogenesis and/or inducing cancer cell cytotoxicity” (Academia Sinica, priority 2015, dated 2019)

How the values were obtained:
PC-3 xenografts = assay: PC-3 human prostate cancer xenograft model; format: in vivo, NOD/SCID mice
Description: Procedures involving animals and their care were conducted according to the guidelines of the Academia Sinica Institutional Animal Care and Utilization Committee in compliance with national and international laws and policies. Non-obese diabetic-severe combined immunodeficiency (NOD/SCID) mice were purchased from the National Laboratory Animal Center (Taiwan). The human prostate cancer xenograft tumor model was developed by subcutaneously injecting 2×10^6 PC-3 cells into the dorsal flank of a six-week old male mouse. Animals were monitored daily for general health, and body weights were measured twice weekly. Tumor size was measured with slide calipers and calculated as length×width^2×0.52. […] An antibody dose of 20 mg/kg was injected twice a week for four weeks. For combination therapy, docetaxel (ScinoPharm Taiwan) was also intravenously administered at a dose of 5 mg/kg once a week for three weeks. At the end of the experiment, tumor tissue and visceral organs were removed and fixed for histological analysis.
For tumor blood vessel studies, samples were fixed in OCT. Frozen blocks were cut into 50 μm sections, and frozen tumor tissue sections were fixed with 1% paraformaldehyde, permeabilized with 0.1% TRITON™-X 100, blocked with normal horse serum (Vector), and then incubated for 1 hour at room temperature (RT) with a 1:100 dilution of the primary antibody (rat anti-mouse CD31 (PECAM-1); BD Bioscience). Subsequently, the tissue sections were incubated with Alexa 549-conjugated goat anti-rat antibody (Invitrogen) at room temperature for 1 hour. Nuclei were stained with DAPI, and sections were then mounted with fluorescent mounting solution. Immunofluorescent images were acquired using a Zeiss Axiovert 200M microscope. Positive areas of CD31 endothelial cells were quantified by pixel area counting and normalized with DAPI staining using ImageJ software under low power magnification.
The frozen tumor tissue sections were fixed with 1% paratbrmaldehyde and permeabilized with 0.1% TRITON™-X 100, before being incubated with terminal deoxynucleotidyltransferase-mediated dUTP nick end labeling reaction mixture (Roche Diagnostics) at 37° C. for 1 hour. After washing three times with PBS, the slides were incubated with FITC-anti-DIG antibody (1:2000) and DAPI (1:500). Slides were mounted with mounting solution and visualized under a fluorescent microscope. Slides were independently examined by three individuals. Areas with TUNEL-positive cells were quantified by pixel area counting, and normalized to DAPI staining using ImageJ software.

murine VEGFR2 protein = murine VEGFR2 protein (Mus musculus, UniProt P35918, DEL223-227); assay: Cross-reactivity with murine VEGFR2; format: binding
murine VEGFR2 protein, sequence (P35918 with tags, fused parts or gaps DEL223-227): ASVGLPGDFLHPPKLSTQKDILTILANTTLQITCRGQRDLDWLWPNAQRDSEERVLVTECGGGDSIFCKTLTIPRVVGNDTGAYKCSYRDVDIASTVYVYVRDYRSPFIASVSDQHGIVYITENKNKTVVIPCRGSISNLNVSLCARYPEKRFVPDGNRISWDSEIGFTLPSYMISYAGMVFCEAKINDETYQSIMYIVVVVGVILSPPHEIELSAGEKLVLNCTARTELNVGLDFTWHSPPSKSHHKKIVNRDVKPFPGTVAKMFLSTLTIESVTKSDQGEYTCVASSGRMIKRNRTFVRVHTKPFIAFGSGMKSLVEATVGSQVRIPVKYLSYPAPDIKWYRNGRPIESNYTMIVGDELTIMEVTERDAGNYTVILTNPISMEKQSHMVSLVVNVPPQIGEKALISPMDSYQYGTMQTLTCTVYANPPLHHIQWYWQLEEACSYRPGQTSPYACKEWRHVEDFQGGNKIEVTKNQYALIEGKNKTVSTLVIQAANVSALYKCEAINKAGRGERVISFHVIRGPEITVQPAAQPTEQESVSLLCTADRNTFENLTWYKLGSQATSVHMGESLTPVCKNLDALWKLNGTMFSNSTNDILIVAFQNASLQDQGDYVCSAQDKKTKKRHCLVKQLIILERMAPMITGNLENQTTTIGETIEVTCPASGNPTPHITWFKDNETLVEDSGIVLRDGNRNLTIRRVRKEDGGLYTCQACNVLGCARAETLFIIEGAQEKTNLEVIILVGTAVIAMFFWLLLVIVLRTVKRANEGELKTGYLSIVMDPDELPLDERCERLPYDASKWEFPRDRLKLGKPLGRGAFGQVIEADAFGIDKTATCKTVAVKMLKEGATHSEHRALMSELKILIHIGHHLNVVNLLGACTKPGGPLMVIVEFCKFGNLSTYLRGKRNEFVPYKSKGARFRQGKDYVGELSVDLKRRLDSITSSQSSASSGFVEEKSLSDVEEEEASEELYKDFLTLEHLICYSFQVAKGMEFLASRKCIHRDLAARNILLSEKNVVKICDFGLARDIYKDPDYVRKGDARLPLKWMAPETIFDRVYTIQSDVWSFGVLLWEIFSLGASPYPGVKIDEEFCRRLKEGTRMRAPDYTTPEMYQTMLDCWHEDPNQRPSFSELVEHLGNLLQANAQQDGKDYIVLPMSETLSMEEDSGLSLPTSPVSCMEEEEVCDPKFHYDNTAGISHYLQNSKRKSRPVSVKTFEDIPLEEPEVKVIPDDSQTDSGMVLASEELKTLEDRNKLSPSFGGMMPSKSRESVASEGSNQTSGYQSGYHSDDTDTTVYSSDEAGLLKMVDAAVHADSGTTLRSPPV

VEGFR2 = molecular target: T1, VEGFR2 (Homo sapiens, UniProt P35968); assay: Competitive VEGF binding assay (ELISA): VEGF-A binding to immobilized VEGFR2; conditions: scFv; for IC50: 3 nM human VEGF-A, immobilized VEGFR2-Fc, read-out: half-maximal inhibitory concentration (IC50) of the interaction of VEGF-A with VEGFR2; for competitive ability against VEGF-A binding to VEGFR2: plate-based competition binding assay
T1 construct: purchased R&D Systems
T1 sequence (P35968 with tags, fused parts or gaps limits assumed): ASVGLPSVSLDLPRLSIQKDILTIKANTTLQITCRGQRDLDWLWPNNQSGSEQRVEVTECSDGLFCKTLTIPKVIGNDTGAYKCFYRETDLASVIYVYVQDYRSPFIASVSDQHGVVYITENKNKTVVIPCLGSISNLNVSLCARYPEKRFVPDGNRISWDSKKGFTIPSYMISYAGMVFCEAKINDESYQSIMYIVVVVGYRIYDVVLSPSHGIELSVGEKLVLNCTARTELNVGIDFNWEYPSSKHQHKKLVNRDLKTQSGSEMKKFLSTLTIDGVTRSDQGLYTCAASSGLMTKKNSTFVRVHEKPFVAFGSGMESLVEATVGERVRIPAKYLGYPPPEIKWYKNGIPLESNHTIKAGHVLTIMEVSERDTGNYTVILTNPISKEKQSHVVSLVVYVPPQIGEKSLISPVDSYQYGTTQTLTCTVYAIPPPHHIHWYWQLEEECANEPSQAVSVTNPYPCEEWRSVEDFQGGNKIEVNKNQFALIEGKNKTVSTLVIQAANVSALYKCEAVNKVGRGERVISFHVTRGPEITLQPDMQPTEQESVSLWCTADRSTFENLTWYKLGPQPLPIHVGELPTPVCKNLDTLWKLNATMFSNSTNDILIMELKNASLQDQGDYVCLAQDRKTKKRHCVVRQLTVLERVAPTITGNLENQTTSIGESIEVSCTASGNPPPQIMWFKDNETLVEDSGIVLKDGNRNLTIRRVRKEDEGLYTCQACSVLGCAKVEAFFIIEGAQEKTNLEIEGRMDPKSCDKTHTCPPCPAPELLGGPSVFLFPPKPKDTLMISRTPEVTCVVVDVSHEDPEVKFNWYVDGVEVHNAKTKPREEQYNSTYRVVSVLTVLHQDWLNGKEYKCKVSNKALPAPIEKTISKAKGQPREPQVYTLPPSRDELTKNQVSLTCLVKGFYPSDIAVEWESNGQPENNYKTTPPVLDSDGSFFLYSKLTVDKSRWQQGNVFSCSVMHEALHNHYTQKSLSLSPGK
Description: Various concentrations of anti-VEGFR2 scFvs were mixed with 3 nM human VEGF-A (Peprotech), and added to 96-well plates coated with 1 μg/ml of VEGFR2-Fc and pre-blocked in 1% BSA. After incubation for 1 hr at RT and washes with PBST, the bound VEGF molecules were detected using anti-VEGF mAb (GeneTex) and HRP-labeled goat anti-mouse IgG. The reaction was developed with a mixture of OPD and H2O2, and subsequently terminated with 3 N HCl. The absorbance was determined using a microplate reader at 490 nm.
To determine whether the anti-VEGFR2 scFvs can block VEGF-A binding to VEGFR2, we performed a plate-based competition binding assay in which increasing concentrations of scFvs competed with VEGF-A for binding to the immobilized VEGFR2.
We analyzed the affinity of both human antibodies to VEGFR2 using a BIACORE T100™. […] We performed solid-phase competitive assays to quantitatively evaluate the disruption of VEGF-A/VEGFR2 binding by individual antibodies.

VEGFR2 signaling pathway = assay: Western blot of VEGF-A-induced phosphorylation in HUVECs; format: cell-based, human; conditions: scFv
Source text: Western blots were pertbrmed using standard protocols, as previously described. The primary antibodies were purchased from Cell Signaling Technology and used at a 1,000-fold dilution for protein detection; the antibodies used are as follows: anti-VEGFR2 (clone 55B11), anti-phospho-VEGFR2 (Tyr1175; clone 19A10), anti-FAK, anti-phospho-FAK (Tyr397; cloneD20B1), anti-p42/44 MAPK, anti-phospho-p42/44 MAPK (Thr202/Tyr204; cloneD13.14.4E), anti-Akt, and anti-phospho-Akt (Ser473).

Met-Fc = assay: Phage clone ELISA on control protein; format: binding
Description: (§1) The selected phages were further examined by ELISA screening. The 96-well plates were coated with 1 μg/ml of VEGFR2-Fc, Met-Fc (R&D), or BSA (Sigma) protein in 0.1 M sodium bicarbonate overnight at 4° C. After blocking with 1% BSA in PBS (w/v) for 2 hr at room temperature, 70-randomly selected phage clones were added to the plates at a 1:2 dilution in 1% BSA, and incubated for 1 hr at room temperature. Following washes with PBST, the plates were incubated with a 1:2000 dilution of horseradish peroxidase (HRP)-conjugated mouse anti-M13 phage antibody (GE) for 1 hr. After washing with PBST, the colorimetric reaction was developed with the peroxidase substrate ortho-phenylenediamine (OPD; Sigma) plus H2O2 for 15 min, and then terminated by the addition of 3 N HCl. The absorbance at 490 nm was determined using a microplate reader (SpectraMax, Molecular Devices). Plasmid DNA of positive clones were isolated and sequenced using the pCANTAB5 sequencing primer set.

VEGFR2-Fc = molecular target: T2, VEGFR2-Fc (Homo sapiens, UniProt P35968); assay: Screening of anti-VEGFR2 phage clones by ELISA; format: binding; conditions: 1×10^9 cfu phage titer
T2 construct: purchased R&D Systems
T2 sequence (P35968 with tags, fused parts or gaps limits assumed): as above
Description: as §1

Molecule: CC(=O)O[C@@]12CO[C@@H]1C[C@H](O)[C@@]1(C)C(=O)[C@H](O)C3=C(C)[C@@H](OC(=O)[C@H](O)[C@@H](NC(=O)OC(C)(C)C)c4ccccc4)C[C@@](O)([C@@H](OC(=O)c4ccccc4)[C@H]21)C3(C)C [docetaxel, reference compound]
- tumor growth reduction (PC-3 xenografts; by day 38, antibody 20 mg/kg i.v. twice a week, docetaxel 5 mg/kg i.v. once a week): 70%
- loss of body weight (PC-3 xenografts; treatment period): about 20%

B1: R2S12: soluble anti-VEGFR2 scFv protein from phage clone R2PC12; VH SEQ ID NO: 76, VL SEQ ID NO: 77 (antibody, V domains shown)
VH: QVNLRESGGGLVKPGGSLRLSCAASGFTFGSYTMNWVRQAPGKGLEWVASITSGSSYIFYTDSVKGRFTISRDNSRSSLFLQMNSLRAEDTAIYYCARGSASAFDIWGQGTMVTVSS
VL: DIQMTQSPSSLSASVGDRVTITCKASDDIINYLNWYQQKPGEAPKLLIYDASILETGVPSRFSGSGSGTDFTFTISSLQPEDIATYYCQQYDILPLTFGGGTKLEIK
modifications: scFv linker; VH region of R2S12 or R2S12-AF; VL region of R2S12
- cross-reaction / binding to murine VEGFR2 (murine VEGFR2 protein): did not cross-react
- IC50 (VEGFR2): 3.26 nM
- tyrosine phosphorylation of VEGFR2 by VEGF-A (VEGFR2 signaling pathway): strongest inhibition activity

B2: R2PC8: phage-displayed human scFv clone binding VEGFR2; VH CDR1-3 SEQ ID NO: 1-3, VL CDR1/CDR3 SEQ ID NO: 4, 5 (antibody, V domains shown)
VH: QVQLVQSGGGLVKPGGSLRLSCAASGFTFSSYSMSWVRQAPGKGLEWVSSISSSSSYIYYADSVKGRFTISRDNAKNSLYLQMNSLRAEDTAVYYCARSTDAFDIWGQGTMVTVSS
VL: DIVMTQSPSSLSASVGDRVTITCRASQRISNYLNWYQHKSGEDPKLLIYAASSLQSGVPSRFSGSGSGTDFTLTISSLQPEDFATYYCQQYDRYPPTFGQGTKLEIK
- binding of phage clones to c-Met-Fc control protein (Met-Fc): not
- binding of phage clones to VEGFR2-Fc (VEGFR2-Fc): bind highly

B3: R2S8: soluble anti-VEGFR2 scFv protein generated from phage clone R2PC8 (antibody, V domains shown)
VH: B2 VH
VL: B2 VL
- cross-reaction / binding to murine VEGFR2 (murine VEGFR2 protein): did not cross-react
- IC50 (VEGFR2): 7.03 nM
- tyrosine phosphorylation of VEGFR2 by VEGF-A (VEGFR2 signaling pathway): inhibited

B4: R2PC29: phage-displayed human scFv clone binding VEGFR2; VH CDR1-3 SEQ ID NO: 16-18, VL CDR1/CDR3 SEQ ID NO: 19, 20 (antibody, V domains shown)
VH: QVQLQQSGAEMKKSGSSVKVSCKASGGNFISKGISWVRQAPGQGLEWMGGIIPLFGTGNYAQKFQGRVTITADESTTTVYLQLTSLTPEDTAMYFCATADVDYSDSLEAFDMWGQGTMVTVSS
VL: DIVMTQSPSSLSASVGDRVTITCRASQSINNYLNWYQQKPGKAPNLLIYGASSLQSGVPSRFRGSGSGTDFTLTISSLQPEDFATYYCQQSYSTPLFGQGTKLEIK
- binding of phage clones to c-Met-Fc control protein (Met-Fc): not
- binding of phage clones to VEGFR2-Fc (VEGFR2-Fc): bind highly

B5: R2S29: soluble anti-VEGFR2 scFv protein generated from phage clone R2PC29 (antibody, V domains shown)
VH: B4 VH
VL: B4 VL
- competitive ability against VEGF-A binding to VEGFR2 (VEGFR2): comparatively weak competitive ability

B6: R2PC45: phage-displayed human scFv clone binding VEGFR2; VH CDR1-3 SEQ ID NO: 21-23, VL CDR1/CDR3 SEQ ID NO: 24, 25 (antibody, V domains shown)
VH: QVNLRESGGGVVQPGRSLRLSCAASGFTFSSYAMHWVRQAPGKGLEWVAVISYDGSNKYYADSVKGRFTISRDNSKNTLYLQMNSLRAEDTAVYYCAREQDYGSSSGDAFDIWGQGTMVTVSS
VL: DIQMTQSPSSLSASVGDRVTITCRASQRISSYLNWYQQKPGKAPKLLIYDASNLQSGVPSRFSGSGSGTDFTLTINGLQPDDFAIYFCHQSYSAPPTFGQGTKVEIK
- binding of phage clones to c-Met-Fc control protein (Met-Fc): not
- binding of phage clones to VEGFR2-Fc (VEGFR2-Fc): bind highly

B7: R2PC28: phage-displayed human scFv clone binding VEGFR2; VH CDR1-3 SEQ ID NO: 11-13, VL CDR1/CDR3 SEQ ID NO: 14, 15 (antibody, V domains shown)
VH: EVQLVESGGALVQPGGSLRLSCVGSEFTFSHYNLHWVRQAPGKGLEWLAVISDDGRNKYYGDSVKGRFTISRDNSKNTLYLQMNGLRAEDTAVYYCARVPTVWRGGVYDIWGQGTMVTVSS
VL: EIVLTQSPATLSLSPGERATLSCRASQSVGSYLAWYQQRPGQPPRLLIYDASNRATGVAARFSGSGSGTDFTLTIDSLEAEDAATYYCHQSSSLPRTFGQGTKLEIK
- binding of phage clones to c-Met-Fc control protein (Met-Fc): not
- binding of phage clones to VEGFR2-Fc (VEGFR2-Fc): bind highly

B8: R2S28: soluble anti-VEGFR2 scFv protein generated from phage clone R2PC28 (antibody, V domains shown)
VH: B7 VH
VL: B7 VL
- competitive ability against VEGF-A binding to VEGFR2 (VEGFR2): comparatively weak competitive ability
